Legend:
[1] = target: Recombinant full length human HMGB1 (wild type HMGB1) (human); assay: cell-based or functional assay
RAW 264.7 cells [2] = assay: TNF release from RAW 264.7 cells, L929 cytotoxicity bioassay; type: cell-based, murine
Method: (§1) Murine macrophage-like RAW 264.7 cells (American Type Culture Collection, Rockville, Md.) were cultured in RPMI 1640 medium (Life Technologies, Grand Island N.Y.) supplemented with 10% fetal bovine serum (Gemini, Catabasas, Calif.), penicillin and streptomycin (Life Technologies) and were used at 90% confluence in serum-free Opti-MEM I medium (Life Technologies, Grand Island, N.Y.). […] Polymyxin B was not used in experiments of synthetic peptide studies.
TNF release was measured by a standard murine fibroblast L929 (ATCC, American Type Culture Collection, Rockville, Md.) cytotoxicity bioassay (Bianchi et al., Journal of Experimental Medicine 183:927-936, 1996) with the minimum detectable concentration of 30 pg/ml. […]
The effect of the mutants on TNF release from Murine macrophage-like RAW 264.7 cells (ATCC) was carried out as follows. […] Conditioned supernatants (containing TNF which had been released from the cells) were collected and TNF released from the cells was measured by a standard murine fibroblast L929 (ATCC) cytotoxicity bioassay (Bianchi et al., supra) with the minimum detectable concentration of 30 pg/ml. […]
To further examine the effect of HMGB1 B box on cytokine production, varying amounts of HMGB1 B box were evaluated for the effects on TNF, IL-1, and IL-6 production in murine macrophage-like RAW 264.7 cells. […]

[3] = target: RAGE on murine macrophage-like RAW 264.7 cells (mouse (murine RAW 264.7 cells)) (UniProt Q62151); assay: cell-based or functional assay
[4] = system: Balb/c mice subjected to CLP; assay: Cecal ligation and puncture (CLP) sepsis, survival of Balb/c mice; type: in vivo, mouse; conditions: i.p. twice daily for 3 days beginning 24 hours after CLP
Method: Cecal ligation and puncture (CLP) was performed as described previously (Fink and Heard, J. Surg. Res. 49:186-196, 1990; Wichmann et al., Crit. Care Med. 26:2078-2086, 1998; and Remick et al., Shock 4:89-95, 1995). Briefly, Balb/c mice were anesthetized with 75 mg/kg ketamine (Fort Dodge, Fort Dodge, Iowa) and 20 mg/kg of xylazine (Bohringer Ingelheim, St. Joseph, Mo.) intramuscularly. A midline incision was performed, and the cecum was isolated. A 6-0 prolene suture ligature was placed at a level 5.0 mm from the cecal tip away from the ileocecal valve.
The ligated cecal stump was then punctured once with a 22-gauge needle, without direct extrusion of stool. The cecum was then placed back into its normal intra-abdominal position. […] Mortality was recorded for up to 1 week after the procedure; survivors were followed for 2 weeks to ensure no late mortalities had occurred.
To determine whether the HMGB1 A box can inhibit the lethality of HMGB1 during sepsis, mice were subjected to cecal perforation and treated by administration of A box beginning 24 hours after the onset of sepsis. […] Survival was monitored twice daily for up to 2 weeks to ensure no late death occurred. […]
Passive immunization of critically ill septic mice with anti-HMGB1 antibodies was also assessed. […] Survival was monitored for 2 weeks. […]

C3H/HeJ mice = assay: Lethality and histology in C3H/HeJ mice; type: in vivo, mouse; conditions: 8 hours after administration
RAW 264.7 cells [5] = assay: IL-6 release from RAW 264.7 cells, ELISA; type: cell-based, murine; conditions: B box 0-10 μg/ml, 8 hours (FIG. 2C)
Method: as §1
To further examine the effect of HMGB1 B box on cytokine production, varying amounts of HMGB1 B box were evaluated for the effects on TNF, IL-1, and IL-6 production in murine macrophage-like RAW 264.7 cells. Conditioned media were harvested and measured for TNF, IL-1β and IL-6 levels. TNF levels were measured as described herein, and IL-1β and IL-6 levels were measured using the mouse IL-1β and IL-6 enzyme-linked immunosorbent assay (ELISA) kits (R&D System Inc., Minneapolis, Minn.) and N>5 for all experiments.

[6] = system: NF-κB-dependent ELAM promoter; assay: NF-κB dependent ELAM promoter luciferase reporter in RAW 264.7 macrophages; type: cell-based, murine; conditions: HMGB1 100 ng/ml or B box 10 μg/ml, 5 hours; decreased with MyD 88 dominant negative (FIG. 11B)
Method: To examine the effects of HMGB1 or HMGB1 B box on the NF KB dependent ELAM promoter, the following experiment was carried out. RAW 264.7 macrophages were transiently co transfected with an expression plasmid encoding a murine MyD 88 dominant negative (DN) mutant (corresponding to amino acids 146 296), or empty vector, plus a luciferase reporter plasmid under the control of the NF κB dependent ELAM promoter, as described by Means et al. (J. Immunol. 166:4074 4082, 2001). A portion of the cells were then stimulated with full length HMGB1 (100 ng/ml), or purified HMGB1 B box (10 μg/ml), for 5 hours. Cells were then harvested and luciferase activity was measured, using standard methods. All transfections were performed in triplicate, repeated at least three times, and a single representative experiment is shown in FIG. 11B.

RAGE on murine macrophage-like RAW 264.7 cells (mouse (murine RAW 264.7 cells)), sequence (Q62151 23-402): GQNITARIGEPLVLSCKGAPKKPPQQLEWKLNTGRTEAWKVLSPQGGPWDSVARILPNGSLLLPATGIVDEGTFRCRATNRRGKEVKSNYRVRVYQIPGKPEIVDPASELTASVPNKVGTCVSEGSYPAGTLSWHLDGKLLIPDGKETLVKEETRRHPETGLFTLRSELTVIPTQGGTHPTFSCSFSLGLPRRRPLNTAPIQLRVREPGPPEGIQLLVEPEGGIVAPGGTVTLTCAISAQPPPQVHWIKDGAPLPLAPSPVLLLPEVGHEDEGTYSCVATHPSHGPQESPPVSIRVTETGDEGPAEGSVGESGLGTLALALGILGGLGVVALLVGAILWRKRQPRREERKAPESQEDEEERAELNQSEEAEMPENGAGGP

HMGB1 A box protein (Amino terminus + A box mutant of human HMGB1) (from UniProt A9RA84 1-85)
inhibition of HMGB1 induced TNF release from RAW 264.7 cells (L929 cytotoxicity assay) [1]: 7.5 µg/mL

fkdpnapkrlpsafflfcse (FKDPNAPKRLPSAFFLFCSE; listed as Homo sapiens) [1-20]
TNF release by synthetic B box peptide fragments (RAW 264.7 cells [2]; synthetic peptide 10 μg/ml, 10 hours, no polymyxin B (FIG. 3), listed as 1-20-mer): less potent than either the full length synthetic B box (1-74-mer), or full length HMGB1

Recombinant full length human HMGB1 (wild type HMGB1) (from UniProt A9RA84 1-215) (ligand)
decrease of HMG-1 signaling (TNF release from RAW 264.7 cells) by anti-RAGE antibody [3]: 40%

B1: A box: Recombinant human HMGB1 amino terminus + A box mutant, SEQ ID NO:21 (A box SEQ ID NO:22), GST fusion system (protein, listed as Homo sapiens)
chain: MGKGDPKKPTGKMSSYAFFVQTCREEHKKKHPDASVNFSEFSKKCSERWKTMSAKEKGKFEDMAKADKARYEREMKTYIPPKGET
modifications: GST fusion
clinical condition of animals ([4]; 60 μg/mouse): most died | clinical condition of animals ([4]; 600 μg/mouse): significantly more alert, active, and to resume feeding behavior

B2: B box: Recombinant human HMGB1 B box mutant polypeptide, SEQ ID NO:20, expressed with a GST gene fusion system in E. coli (protein, listed as Homo sapiens)
chain: FKDPNAPKRLPSAFFLFCSEYRPKIKGEHPGLSIGDVAKKLGEMWNNTAADDKQPYEKKAAKLKEKYEKDIAAY
modifications: GST fusion
histology of heart (C3H/HeJ mice): evidence of ischemia with loss of cross striation associated with amorphous pink cytoplasm in myocardial fibers | histology of liver (C3H/HeJ mice): mild acute inflammatory responses, with some hepatocyte dropout and apoptosis, and occasional polymorphonuclear leukocytes | IL-6 release, dose response (RAW 264.7 cells [5]): increased with increased amounts of B box | TNF protein expression over time versus medium only (RAW 264.7 cells [2]; 10 μg/ml, 0-48 hours (FIGS. 2E, 2F)): stimulated TNF protein expression

B3: HMGB1: Recombinant full length human HMGB1, SEQ ID NO:18; recombinant rat HMGB1 used in some experiments (protein, listed as Homo sapiens)
chain: MGKGDPKKPTGKMSSYAFFVQTCREEHKKKHPDASVNFSEFSKKCSERWKTMSAKEKGKFEDMAKADKARYEREMKTYIPPKGETKKKFKDPNAPKRLPSAFFLFCSEYRPKIKGEHPGLSIGDVAKKLGEMWNNTAADDKQPYEKKAAKLKEKYEKDIAAYRAKGKPDAAKKGVVKAEKSKKKKEEEEDEEDEEDEEEEEDEEDEEDEEEDDDDE
luciferase activity (NF-κB dependent ELAM promoter) [6]: stimulated luciferase activity

Reference: patent US20080124320A1, “Use of HMGB fragments as anti-inflammatory agents” (priority 2002, published 2008)
